From article PMC9234588 come the findings set out here.

The target in test [1] is MukB^EQ-Cy5 (EQ MukB mutant, binds but cannot hydrolyse ATP) (E. coli) (UniProt P22523). The experiment in a line: single-molecule TIRF fluorescence intensity counting; MukB^EQ-Cy5 with MukE, truncated monomeric MukF (MonoMukF) and ATP-Mg2+ on doubly tethered λDNA, 150 mM NaCl buffer, ~1 pN of applied force; 164 clusters.
Test [2] concerns the target Fluorescently labelled MukB (MukB-Cy5) (E. coli) (UniProt P22523). The experiment in a line: single-molecule TIRF fluorescence intensity counting; MukB-Cy5 on 'bulbs' of doubly tethered λDNA; 10 nM MukB incubated with DNA at 50 mM NaCl until compacted, then 10 nM MukF, 20 nM MukE and 1 mM ATP-Mg2+ flowed in; number from the intensity against that of a single MukB bound to glass; 107 DNAs.

For orientation: stoichiometry N means the number of molecules, sites or subunits per partner or assembly. For the substance “MukB^EQ-Cy5 (EQ MukB mutant, binds but cannot hydrolyse ATP) (from UniProt P22523 1-1486) (natural protein)”, the stoichiometry N in test [1] worked out at 2.
Consider “Fluorescently labelled MukB (MukB-Cy5) (from UniProt P22523 1-1486) (natural protein)”, for which the stoichiometry N in test [2] lay within 2 to 4.
